Legend:
[1] = tested on: T1, XreR1 (Photorhabdus luminescens DJC), ORF:d6b45183; test: SPR; conditions: SPR (Biacore 3000, SA chip), proteins in dialysis buffer: 50 mM Tris/HCl pH 7.5, 10% glycerol, 500 mM NaCl, 2 mM beta-mercaptoethanol; 25 C; 30 ul/min; 1:1 …
T1 sequence: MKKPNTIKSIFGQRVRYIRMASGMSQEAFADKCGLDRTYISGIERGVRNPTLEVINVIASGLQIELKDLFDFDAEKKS

[2] = tested on: T2, XreR2 (Photorhabdus luminescens DJC), ORF:b2ab5127; test: SPR; conditions: SPR (Biacore 3000, SA chip), proteins in dialysis buffer: 50 mM Tris/HCl pH 7.5, 10% glycerol, 500 mM NaCl, 2 mM beta-mercaptoethanol; 25 C; 30 ul/min; 1:1 …
T2 sequence: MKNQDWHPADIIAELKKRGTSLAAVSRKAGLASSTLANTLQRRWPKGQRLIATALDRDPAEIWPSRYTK

[3] = tested on: T1, XreR1 (Photorhabdus luminescens DJC), ORF:d6b45183; test: MST; conditions: SPR (Biacore 3000, SA chip), proteins in dialysis buffer: 50 mM Tris/HCl pH 7.5, 10% glycerol, 500 mM NaCl, 2 mM beta-mercaptoethanol; 25 C; 30 ul/min; 1:1 …
[4] = tested on: T2, XreR2 (Photorhabdus luminescens DJC), ORF:b2ab5127; test: MST; conditions: SPR (Biacore 3000, SA chip), proteins in dialysis buffer: 50 mM Tris/HCl pH 7.5, 10% glycerol, 500 mM NaCl, 2 mM beta-mercaptoethanol; 25 C; 30 ul/min; 1:1 …
[5] = tested on: XreR1 (Photorhabdus luminescens DJC); test: SPR; conditions: SPR (Biacore 3000, SA chip), proteins in dialysis buffer: 50 mM Tris/HCl pH 7.5, 10% glycerol, 500 mM NaCl, 2 mM beta-mercaptoethanol, 25 C, 30 ul/min, 1:1 …

## GGGTGCCAGTCTTGATTTTTCATTAATTAATCCTCCGTGTTACGGATAACTTTGATATGAAAAGGTAAGTCGTTACATAGTAGACTATAAGTCACATATGATAACATAACTTACCATAAAAAGTGACTCATAGTCCGTGGTCTGATAAGTAACATCATTCGATACTTATCAG (double strand) [PxreR2]
[1]
  Kd: 0.3 nM
[2]
  binding: binds
[3]
  binding: binds
[4]
  binding: binds

## GTTTCATAGCACACCTCAGAAACACACTTAAAATGAACATGAGGAAATGGATTGCGAGCAGGAAAAGATAAATGCAAACAGCTATAAGTAATCATTACTCTTACCGAATGATATAAAGTAGATTGGAGCAGCTTATCTCATTGATAAACTACTCCACTTTAATTTACAGCCAC (double strand) [PpTAS]
[1]
  binding: no binding
[2]
  binding: binds
[4]
  binding: binds

## PxreR1
[5]; ka 4.5E+06 1/Ms, kd 2.9E-3 1/s
  Kd: 0.6 nM

## PxreR2
[5]; ka printed 2.8E+05 1/Ms, kd 8.9E-4 1/s (ratio inconsistent with the printed KD)
  Kd: 0.3 nM
